From PMC8892516, “Intragenic suppressors unravel the role of the SCREAM ACT-like domain for bHLH partner selectivity in stomatal development” (Proceedings of the National Academy of Sciences of the …, 2022)

B1: MUTE (1-202), recombinant (natural protein, Arabidopsis thaliana, UniProt Q9M8K6 1-202, looked up)
chain: MSHIAVERNRRRQMNEHLKSLRSLTPCFYIKRGDQASIIGGVIEFIKELQQLVQVLESKKRRKTLNRPSFPYDHQTIEPSSLGAATTRVPFSRIENVMTTSTFKEVGACCNSPHANVEAKISGSNVVLRVVSRRIVGQLVKIISVLEKLSFQVLHLNISSMEETVLYFFVVKIGLECHLSLEELTLEVQKSFVSDEVIVSTN
notes: MUTE, Arabidopsis thaliana, residues 1-202; MUTE (1-202) was cloned both in pGEX-4T-1 (N-terminal GST, thrombin cleaved) and in pET28a (N-terminal His tag); also called purified MUTE; MUTE-HIS; source: E. coli BL21, purified (Ni-NTA, Superdex-200)
B2: SCRM ACTL L484F (405-494) (domain or fragment, Arabidopsis thaliana, UniProt Q9LSE2 405-494, looked up)
chain: KGQQARVEVRLREGRAVNIHMFCGRRPGLLLATMKALDNLGLDVQQAVISCFNGFALDVFRAEQCQEGQEILPDQIKAVFFDTAGYAGMI
notes: SCREAM (SCRM, ICE1), Arabidopsis thaliana, At3G26744, C-terminal ACT-like domain, residues 405-494, with L484F (the methods print L485F); also called SCRM L484F ACTL; source: E. coli BL21, purified (glutathione resin, Superdex-200)
B3: ΔNSPCH (98-364), recombinant (domain or fragment, Arabidopsis thaliana, UniProt Q700C7 98-364, looked up)
chain: GQQKMSHVTVERNRRKQMNEHLTVLRSLMPCFYVKRGDQASIIGGVVEYISELQQVLQSLEAKKQRKTYAEVLSPRVVPSPRPSPPVLSPRKPPLSPRINHHQIHHHLLLPPISPRTPQPTSPYRAIPPQLPLIPQPPLRSYSSLASCSSLGDPPPYSPASSSSSPSVSSNHESSVINELVANSKSALADVEVKFSGANVLLKTVSHKIPGQVMKIIAALEDLALEILQVNINTVDETMLNSFTIKIGIECQLSAEELAQQIQQTFC
notes: BLI and ITC name it only SPCH; ΔNSPCH (98-364) is the only long recombinant SPCH construct that the methods list; also called purified SPCH; source: E. coli BL21, purified (glutathione resin, thrombin, Superdex-200); not shown: GST, N-terminal, cleaved
B4: ΔNFAMA, recombinant (domain or fragment)
chain: ESQRMTHIAVERNRRKQMNEHLRVLRSLMPGSYVQRGDQASIIGGAIEFVRELEQLLQCLESQKRRRILGETGRDMTTTTTSSSSPITTVANQAQPLIITGNVTELEGGGGLREETAENKSCLADVEVKLLGFDAMIKILSRRRPGQLIKTIAALEDLHLSILHTNITTMEQTVLYSFNVKITSETRFTAEDIASSIQQIFSFIHANTNISGSSNLGNIVFT
modifications: Limits not printed. Start set by analogy with the printed ΔNSPCH 98-364, which starts one residue before its annotated bHLH (99); FAMA bHLH is 194-245. Runs to the native C-terminus, including the …
B5: SCRMΔC (1-404), recombinant (domain or fragment, Arabidopsis thaliana, UniProt Q9LSE2 1-404, looked up)
chain: MGLDGNNGGGVWLNGGGGEREENEEGSWGRNQEDGSSQFKPMLEGDWFSSNQPHPQDLQMLQNQPDFRYFGGFPFNPNDNLLLQHSIDSSSSCSPSQAFSLDPSQQNQFLSTNNNKGCLLNVPSSANPFDNAFEFGSESGFLNQIHAPISMGFGSLTQLGNRDLSSVPDFLSARSLLAPESNNNNTMLCGGFTAPLELEGFGSPANGGFVGNRAKVLKPLEVLASSGAQPTLFQKRAAMRQSSGSKMGNSESSGMRRFSDDGDMDETGIEVSGLNYESDEINESGKAAESVQIGGGGKGKKKGMPAKNLMAERRRRKKLNDRLYMLRSVVPKISKMDRASILGDAIDYLKELLQRINDLHNELESTPPGSLPPTSSSFHPLTPTPQTLSCRVKEELCPSSLPSP
notes: SCREAM (SCRM, ICE1), Arabidopsis thaliana, At3G26744, residues 1-404; the purification methods tell thrombin cleavage; also called SCRM1ΔC; source: E. coli BL21, purified (glutathione resin, thrombin, Superdex-200); not shown: GST, N-terminal, cleaved
B6: MUTE-ACTL (114-202) (domain or fragment, Arabidopsis thaliana, UniProt Q9M8K6 114-202, looked up)
chain: HANVEAKISGSNVVLRVVSRRIVGQLVKIISVLEKLSFQVLHLNISSMEETVLYFFVVKIGLECHLSLEELTLEVQKSFVSDEVIVSTN
notes: MUTE, Arabidopsis thaliana, ACT-like domain, residues 114-202; source: E. coli BL21, purified (glutathione resin, thrombin, Superdex-200); not shown: GST, N-terminal, cleaved

Key:
[1] = biological target: T1, GST-fused SCRM (1-494) (Arabidopsis thaliana, UniProt Q9LSE2 1-494); experiment: BLI; Octet Red96; anti-GST probes loaded with 500 nM GST-SCRM or GST-SCRMΔC; SPCH/MUTE/FAMA as analyte at 3.12-200 nM; 30 °C; 1x PBS with 0.02% Tween 20; no DNA; 1:1 model; details: both partners purified
T1 construct: SCREAM (SCRM, ICE1), Arabidopsis thaliana, At3G26744, residues 1-494; GST kept for loading on anti-GST probes; also called GST SCRM; GST-tagged SCRM; source: E. coli BL21, purified (glutathione agarose resin); not shown: GST, N-terminal, kept
T1 sequence (looked up): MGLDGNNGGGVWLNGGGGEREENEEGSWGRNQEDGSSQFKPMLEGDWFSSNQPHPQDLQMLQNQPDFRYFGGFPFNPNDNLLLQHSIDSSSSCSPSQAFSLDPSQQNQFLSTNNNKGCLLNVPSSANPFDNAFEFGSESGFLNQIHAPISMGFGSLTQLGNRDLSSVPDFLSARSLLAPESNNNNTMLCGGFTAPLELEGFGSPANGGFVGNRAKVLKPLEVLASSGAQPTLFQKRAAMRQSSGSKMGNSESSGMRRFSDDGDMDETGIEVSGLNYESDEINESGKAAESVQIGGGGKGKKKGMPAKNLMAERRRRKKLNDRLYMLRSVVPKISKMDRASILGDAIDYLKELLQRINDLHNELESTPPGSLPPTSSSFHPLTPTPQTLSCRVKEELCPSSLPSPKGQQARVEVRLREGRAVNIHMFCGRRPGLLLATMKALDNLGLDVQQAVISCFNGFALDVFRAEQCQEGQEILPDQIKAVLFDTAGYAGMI

[2] = biological target: GST-fused SCRMΔC (1-404) (Arabidopsis thaliana) (UniProt Q9LSE2); experiment: BLI; as a3, samples incubated for 30 min with a 1:4 molar ratio of the TMM promoter DNA fragment
[3] = biological target: T2, SCRM (1-494), recombinant (Arabidopsis thaliana, UniProt Q9LSE2 1-494); experiment: ITC; Malvern PEAQ-ITC, 25 °C, PBS pH 7.4; 40 μM SCRM/SCRMΔC injected into 4 μM SPCH/MUTE/FAMA; single binding site model; details: both partners purified
T2 construct: SCREAM (SCRM, ICE1), Arabidopsis thaliana, At3G26744, residues 1-494; the purification methods tell thrombin cleavage; source: E. coli BL21, purified (glutathione resin, thrombin, Superdex-200); not shown: GST, N-terminal, cleaved
T2 sequence (looked up): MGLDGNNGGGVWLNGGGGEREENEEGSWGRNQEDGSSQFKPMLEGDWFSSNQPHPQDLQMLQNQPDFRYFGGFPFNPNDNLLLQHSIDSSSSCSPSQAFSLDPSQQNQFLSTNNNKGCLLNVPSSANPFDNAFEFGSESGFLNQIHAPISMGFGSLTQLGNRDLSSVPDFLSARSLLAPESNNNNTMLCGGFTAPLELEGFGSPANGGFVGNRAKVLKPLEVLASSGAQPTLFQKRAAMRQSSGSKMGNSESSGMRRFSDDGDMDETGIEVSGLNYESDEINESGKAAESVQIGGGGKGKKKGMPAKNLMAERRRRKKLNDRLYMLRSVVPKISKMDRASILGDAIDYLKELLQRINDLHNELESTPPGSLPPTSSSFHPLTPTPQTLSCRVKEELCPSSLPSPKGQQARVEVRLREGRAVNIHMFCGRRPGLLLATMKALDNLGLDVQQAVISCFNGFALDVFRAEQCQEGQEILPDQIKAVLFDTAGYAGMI

[4] = biological target: GST-fused SCRMΔC (1-404) (Arabidopsis thaliana) (UniProt Q9LSE2); experiment: BLI; as a3, samples incubated for 30 min with a 1:4 molar ratio of the synthetic E-box DNA fragment
[5] = biological target: T3, SPCH-ACTL (285-364) (Arabidopsis thaliana, UniProt Q700C7 285-364); experiment: ITC; Malvern PEAQ-ITC; 150 µM SCRM ACTL/SCRM L484F ACTL injected into 15 µM SPCH ACTL/MUTE ACTL; PBS, pH 7.2 (Table S3; methods: pH 7.4); 25 °C; means of two experiments; details: both partners purified
T3 construct: also called SPCH ACTL domain; source: E. coli BL21, purified (glutathione resin, thrombin, Superdex-200); not shown: GST, N-terminal, cleaved
T3 sequence (looked up): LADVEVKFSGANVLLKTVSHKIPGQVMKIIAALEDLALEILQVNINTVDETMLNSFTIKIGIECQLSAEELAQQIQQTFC

[6] = biological target: T4, GST-fused SCRMΔC (1-404) (Arabidopsis thaliana, UniProt Q9LSE2 1-404); experiment: BLI; Octet Red96; anti-GST probes loaded with 500 nM GST-SCRM or GST-SCRMΔC; SPCH/MUTE/FAMA as analyte at 3.12-200 nM; 30 °C; 1x PBS with 0.02% Tween 20; no DNA; 1:1 model; details: both partners purified
T4 construct: SCREAM (SCRM, ICE1), Arabidopsis thaliana, At3G26744, residues 1-404; GST kept for loading on anti-GST probes; also called GST SCRMΔC; SCRM1ΔC; source: E. coli BL21, purified (glutathione agarose resin); not shown: GST, N-terminal, kept
T4 sequence (looked up): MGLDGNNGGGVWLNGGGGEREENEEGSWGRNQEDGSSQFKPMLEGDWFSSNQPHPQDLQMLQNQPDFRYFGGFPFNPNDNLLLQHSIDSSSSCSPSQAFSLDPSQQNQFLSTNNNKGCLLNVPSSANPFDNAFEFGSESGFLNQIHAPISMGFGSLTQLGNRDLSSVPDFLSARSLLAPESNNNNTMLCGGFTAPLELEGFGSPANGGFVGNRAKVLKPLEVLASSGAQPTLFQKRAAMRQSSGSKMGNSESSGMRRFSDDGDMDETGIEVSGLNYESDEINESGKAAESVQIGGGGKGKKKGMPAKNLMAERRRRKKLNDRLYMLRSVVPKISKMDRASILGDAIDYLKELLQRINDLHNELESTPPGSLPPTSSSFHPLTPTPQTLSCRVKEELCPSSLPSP

[7] = biological target: B5; experiment: ITC; Malvern PEAQ-ITC, 25 °C, PBS pH 7.4; 40 μM SCRM/SCRMΔC injected into 4 μM SPCH/MUTE/FAMA; single binding site model; details: both partners purified
[8] = biological target: B4; experiment: as above; details: both partners purified
[9] = biological target: B3; experiment: as above; details: both partners purified
[10] = biological target: T5, SCRM ACTL (405-494) (Arabidopsis thaliana, UniProt Q9LSE2 405-494); experiment: ITC; Malvern PEAQ-ITC, 25 °C, PBS pH 7.4; 150 μM SCRM ACTL/SCRM L484F ACTL injected into 15 μM SPCH ACTL/MUTE ACTL; details: both partners purified
T5 construct: SCREAM (SCRM, ICE1), Arabidopsis thaliana, At3G26744, ACT-like domain, residues 405-494; also called SCRM ACTL domain; source: E. coli BL21, purified (glutathione resin, thrombin, Superdex-200); not shown: GST, N-terminal, cleaved
T5 sequence (looked up): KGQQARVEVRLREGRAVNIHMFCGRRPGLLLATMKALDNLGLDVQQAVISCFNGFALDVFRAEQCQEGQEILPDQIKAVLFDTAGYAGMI

| Binder | Kd [1] [µM] | Kd [3] [µM] | Kd [6] [µM] | Kd [7] [µM] | also measured |
| --- | --- | --- | --- | --- | --- |
| B1 | 0.0073 ± 0.0015 | 0.0105 ± 0.0021 | – | – | Kd [2]: 0.565 µM; Kd [4]: 0.545 µM |
| B2 | – | – | – | – | stoichiometry N [5]: 0.85 |
| B3 | 0.0052 ± 0.0011 | 0.0065 ± 0.0016 | 0.068 ± 0.0055 | 0.061 ± 0.0042 | – |
| B4 | 0.0082 ± 0.0021 | 0.0096 ± 0.0014 | 0.052 ± 0.0036 | 0.068 ± 0.0052 | – |
| B5 | – | – | – | – | stoichiometry N [8]: 1; stoichiometry N [9]: 1 |
| B6 | – | – | – | – | Kd [10]: 5.1 µM |
